Experiments:
[1] = target: H-2Kb (MHC-I) presenting the ovalbumin epitope SIINFEKL (SEQ ID NO: 54) (mouse); assay: flow cytometry, 25-D1.16 staining of monocytes in OVA-loaded splenocytes against SQZ only, 2 and 4 h after SQZ
[2] = target: H-2Kb (MHC-I) presenting the ovalbumin epitope SIINFEKL (SEQ ID NO: 54) (mouse); assay: flow cytometry, 25-D1.16 staining of T, B and NK cells in OVA-loaded splenocytes against SQZ only, 2 and 4 h after SQZ

Work on 25-D1.16 antibody yielded an increase in fluorescence intensity [1] of over 10% and an increase in fluorescence intensity [2] of over 40%.
